Experimental data published in PMC11014249.
Read-outs that look alike come from different tables or passages of the source.

Assays:
[1] = target: RccR from Pseudomonas aeruginosa (P. aeruginosa); assay: SEC
[2] = target: T1, RccR (PaRccR) (Pseudomonas aeruginosa, UniProt A0A071KWR3 1-293); assay: EMSA
T1 sequence: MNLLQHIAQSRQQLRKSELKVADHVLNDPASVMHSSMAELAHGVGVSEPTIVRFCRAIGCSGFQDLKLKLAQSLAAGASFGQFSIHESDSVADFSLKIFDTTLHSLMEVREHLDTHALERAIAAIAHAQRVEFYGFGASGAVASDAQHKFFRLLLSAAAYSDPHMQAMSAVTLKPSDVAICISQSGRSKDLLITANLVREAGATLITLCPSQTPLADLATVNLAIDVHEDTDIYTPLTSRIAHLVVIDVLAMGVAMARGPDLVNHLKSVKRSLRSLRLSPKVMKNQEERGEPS

[3] = target: T2, RccR ΔSLR (Pseudomonas aeruginosa, UniProt A0A071KWR3 1-274+278-293, internal_change); assay: EMSA
T2 sequence: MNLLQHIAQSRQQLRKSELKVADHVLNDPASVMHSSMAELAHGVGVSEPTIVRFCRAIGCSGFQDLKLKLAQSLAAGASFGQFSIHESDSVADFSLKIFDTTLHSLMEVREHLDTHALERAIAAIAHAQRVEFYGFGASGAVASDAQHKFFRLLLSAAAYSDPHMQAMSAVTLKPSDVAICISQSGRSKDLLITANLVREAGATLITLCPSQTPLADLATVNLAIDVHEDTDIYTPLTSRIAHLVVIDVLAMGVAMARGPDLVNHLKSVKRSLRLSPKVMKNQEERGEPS

[4] = target: T3, RccR H164A (Pseudomonas aeruginosa, UniProt A0A071KWR3 1-293, H164A); assay: EMSA
T3 sequence: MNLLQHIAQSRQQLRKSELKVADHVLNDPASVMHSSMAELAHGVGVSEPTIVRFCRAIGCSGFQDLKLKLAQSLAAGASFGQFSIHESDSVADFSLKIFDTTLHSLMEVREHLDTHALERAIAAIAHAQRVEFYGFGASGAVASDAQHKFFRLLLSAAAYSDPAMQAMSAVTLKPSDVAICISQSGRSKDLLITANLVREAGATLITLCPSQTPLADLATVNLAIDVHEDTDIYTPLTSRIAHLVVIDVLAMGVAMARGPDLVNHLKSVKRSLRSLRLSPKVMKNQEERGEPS

[5] = target: T4, RccR T231A (Pseudomonas aeruginosa, UniProt A0A071KWR3 1-293, T231A); assay: EMSA
T4 sequence: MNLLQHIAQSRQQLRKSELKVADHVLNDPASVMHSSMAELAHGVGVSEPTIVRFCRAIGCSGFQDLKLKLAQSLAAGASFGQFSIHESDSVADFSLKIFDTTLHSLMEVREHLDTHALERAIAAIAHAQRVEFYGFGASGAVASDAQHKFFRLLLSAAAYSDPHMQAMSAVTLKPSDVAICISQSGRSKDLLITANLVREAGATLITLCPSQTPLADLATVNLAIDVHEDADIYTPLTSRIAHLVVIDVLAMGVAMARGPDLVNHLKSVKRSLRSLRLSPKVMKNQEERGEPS

[6] = target: T5, RccR H148A (Pseudomonas aeruginosa, UniProt A0A071KWR3 1-293, H148A); assay: EMSA
T5 sequence: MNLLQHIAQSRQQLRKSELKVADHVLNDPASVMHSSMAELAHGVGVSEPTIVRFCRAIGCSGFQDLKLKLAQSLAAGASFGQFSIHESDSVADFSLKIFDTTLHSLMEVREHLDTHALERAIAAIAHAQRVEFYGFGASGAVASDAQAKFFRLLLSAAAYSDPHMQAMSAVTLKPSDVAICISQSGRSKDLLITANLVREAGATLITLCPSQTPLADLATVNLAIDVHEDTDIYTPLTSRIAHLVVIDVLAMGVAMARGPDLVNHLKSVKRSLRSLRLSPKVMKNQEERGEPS

[7] = target: T6, RccR SSSS (Pseudomonas aeruginosa, UniProt A0A071KWR3 1-293, S139A;S183A;S185A;S188A); assay: EMSA
T6 sequence: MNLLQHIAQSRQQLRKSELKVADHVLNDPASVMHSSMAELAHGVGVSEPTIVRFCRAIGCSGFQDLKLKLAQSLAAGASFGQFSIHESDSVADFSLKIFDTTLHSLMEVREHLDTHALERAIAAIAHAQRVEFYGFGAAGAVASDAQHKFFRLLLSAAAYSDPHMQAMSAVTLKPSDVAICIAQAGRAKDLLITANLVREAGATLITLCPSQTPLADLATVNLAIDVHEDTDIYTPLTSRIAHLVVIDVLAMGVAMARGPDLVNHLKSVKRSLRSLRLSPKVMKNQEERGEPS

[8] = target: T7, RccR R152A (Pseudomonas aeruginosa, UniProt A0A071KWR3 1-293, R152A); assay: EMSA
T7 sequence: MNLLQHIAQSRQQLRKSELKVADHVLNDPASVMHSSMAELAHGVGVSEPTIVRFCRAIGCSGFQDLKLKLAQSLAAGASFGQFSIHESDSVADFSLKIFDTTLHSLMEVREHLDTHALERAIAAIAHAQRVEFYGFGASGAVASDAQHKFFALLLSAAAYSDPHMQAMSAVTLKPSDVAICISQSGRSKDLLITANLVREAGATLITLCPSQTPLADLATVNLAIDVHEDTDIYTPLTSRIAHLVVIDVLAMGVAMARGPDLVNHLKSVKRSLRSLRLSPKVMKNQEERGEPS

[9] = target: T8, RccR K270A (Pseudomonas aeruginosa, UniProt A0A071KWR3 1-293, K270A); assay: EMSA
T8 sequence: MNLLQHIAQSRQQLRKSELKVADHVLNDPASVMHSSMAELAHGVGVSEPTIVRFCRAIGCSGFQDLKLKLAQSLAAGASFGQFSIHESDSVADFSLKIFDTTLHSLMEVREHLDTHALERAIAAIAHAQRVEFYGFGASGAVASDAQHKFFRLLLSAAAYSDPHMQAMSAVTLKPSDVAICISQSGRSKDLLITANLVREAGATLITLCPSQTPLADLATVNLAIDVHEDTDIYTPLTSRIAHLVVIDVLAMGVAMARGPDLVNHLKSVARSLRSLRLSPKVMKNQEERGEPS

[10] = target: T9, RccR E200A (Pseudomonas aeruginosa, UniProt A0A071KWR3 1-293, E200A); assay: EMSA
T9 sequence: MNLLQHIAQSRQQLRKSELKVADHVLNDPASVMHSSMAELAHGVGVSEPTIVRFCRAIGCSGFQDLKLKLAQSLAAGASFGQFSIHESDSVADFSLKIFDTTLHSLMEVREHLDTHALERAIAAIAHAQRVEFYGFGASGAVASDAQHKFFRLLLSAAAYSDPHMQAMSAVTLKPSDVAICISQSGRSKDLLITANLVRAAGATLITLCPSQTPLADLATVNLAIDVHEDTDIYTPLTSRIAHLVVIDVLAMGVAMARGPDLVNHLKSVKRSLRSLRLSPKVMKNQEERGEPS

[11] = target: T9, RccR E200A; assay: EMSA; remark: listed apart in the source

With “RccR from Pseudomonas aeruginosa (natural protein)” the stoichiometry N [1] was 4.

B1: Variant1 (dsDNA)
DNA 1: ATCTGTAGTGGGACTACAAG
DNA 2: CTTGTAGTCCCACTACAGAT
B1: binds [2].

B2: PaceE (dsDNA)
DNA 1: ATCTGTAGTAAAACTACAAG
DNA 2: CTTGTAGTTTTACTACAGAT
B2: binds [3]; binds [4]; binds [5]. B2: binds [6]; binds [7]; binds [8]. B2: binds [9]; binds [10].

B3: PaceA (dsDNA)
DNA 1: TCGTGTAGTAGTCTTGAAAAAACACTACAAAA
DNA 2: TTTTGTAGTGTTTTTTCAAGACTACTACACGA
B3: binds [11].
